Measurements taken from paper PMC12141716, “An archaeal nucleoid-associated protein binds an essential motif in DNA replication origins” (Nature Communications, 2025).

What was measured:
[1] = target: UBP (ucm-binding protein), recombinant wild type (Sulfolobus islandicus REY15A) (UniProt F0NFD3); test: crystal structure; DNA-free UBP, two crystal forms (C2221 and twinned P21 with four dimers in the asymmetric unit); sodium acetate pH 4.8-5.2, PEG6000, 20 °C
UBP [2] = target: T1, UBP (Sulfolobus islandicus REY15A, UniProt F0NFD3 1-111); test: EMSA; up to 740 nM UBP; EMSA: 50 mM K-acetate, 20 mM Tris-acetate, 10 mM Mg-acetate, 1 mM DTT, pH 7.9, 5-10% glycerol, 70 mM NaCl, 800 ng salmon sperm DNA per 10 ul, room temperature 10 min; footprinting same buffer, 4% glycerol, 8000 ng salmon sperm DNA; pull-down 25 mM HEPES pH 7.5, 150 mM NaCl, 10 mM MgCl, 100 uM ZnCl, 10 mM DTT, 48 C; conditions: protein: recombinant; tags: MBP tag removed by Factor Xa; 3 extra vector residues at N-terminus; chain copies: 2; label: 5'-32P
T1 sequence: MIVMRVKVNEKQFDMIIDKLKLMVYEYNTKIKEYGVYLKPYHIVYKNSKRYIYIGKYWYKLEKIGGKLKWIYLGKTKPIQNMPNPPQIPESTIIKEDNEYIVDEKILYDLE

UBP [3] = target: T1, UBP; test: EMSA; EMSA: 50 mM K-acetate, 20 mM Tris-acetate, 10 mM Mg-acetate, 1 mM DTT, pH 7.9, 5-10% glycerol, 70 mM NaCl, 800 ng salmon sperm DNA per 10 ul, room temperature 10 min; footprinting same buffer, 4% glycerol, 8000 ng salmon sperm DNA; pull-down 25 mM HEPES pH 7.5, 150 mM NaCl, 10 mM MgCl, 100 uM ZnCl, 10 mM DTT, 48 C; conditions: protein: recombinant; tags: MBP tag removed by Factor Xa; 3 extra vector residues at N-terminus; chain copies: 2; label: 5'-32P; blunt
MCM = target: T2, MCM (UniProt F0NF15 1-686); test: EMSA; without UBP; EMSA: 50 mM K-acetate, 20 mM Tris-acetate, 10 mM Mg-acetate, 1 mM DTT, pH 7.9, 5-10% glycerol, 70 mM NaCl, 800 ng salmon sperm DNA per 10 ul, room temperature 10 min; footprinting same buffer, 4% glycerol, 8000 ng salmon sperm DNA; pull-down 25 mM HEPES pH 7.5, 150 mM NaCl, 10 mM MgCl, 100 uM ZnCl, 10 mM DTT, 48 C; conditions: protein: recombinant; chain copies: 6; label: 5'-32P; blunt
T2 sequence: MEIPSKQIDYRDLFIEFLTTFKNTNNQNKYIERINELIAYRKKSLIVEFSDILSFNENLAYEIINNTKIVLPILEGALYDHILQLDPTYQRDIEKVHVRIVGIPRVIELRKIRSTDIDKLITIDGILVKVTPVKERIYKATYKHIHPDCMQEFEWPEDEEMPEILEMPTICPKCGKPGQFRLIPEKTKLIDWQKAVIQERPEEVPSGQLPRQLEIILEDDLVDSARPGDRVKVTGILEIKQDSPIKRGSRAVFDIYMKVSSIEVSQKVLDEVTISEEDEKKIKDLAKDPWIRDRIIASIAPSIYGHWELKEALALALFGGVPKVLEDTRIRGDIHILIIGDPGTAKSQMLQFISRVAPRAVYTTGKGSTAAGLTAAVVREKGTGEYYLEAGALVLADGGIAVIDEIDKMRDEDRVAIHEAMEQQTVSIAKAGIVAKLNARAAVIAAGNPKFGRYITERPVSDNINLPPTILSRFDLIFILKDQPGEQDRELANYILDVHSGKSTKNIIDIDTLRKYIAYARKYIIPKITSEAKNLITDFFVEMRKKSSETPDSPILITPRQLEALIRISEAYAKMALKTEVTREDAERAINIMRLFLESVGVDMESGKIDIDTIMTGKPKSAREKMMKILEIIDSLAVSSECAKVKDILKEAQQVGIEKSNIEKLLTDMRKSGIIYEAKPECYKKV

MCM-NT = target: T3, MCM-NT (Sulfolobus islandicus REY15A, UniProt F0NF15 1-266); test: as above; conditions: protein: recombinant; tags: C-terminal 6xHis; chain copies: 6; label: 5'-32P; blunt
T3 sequence: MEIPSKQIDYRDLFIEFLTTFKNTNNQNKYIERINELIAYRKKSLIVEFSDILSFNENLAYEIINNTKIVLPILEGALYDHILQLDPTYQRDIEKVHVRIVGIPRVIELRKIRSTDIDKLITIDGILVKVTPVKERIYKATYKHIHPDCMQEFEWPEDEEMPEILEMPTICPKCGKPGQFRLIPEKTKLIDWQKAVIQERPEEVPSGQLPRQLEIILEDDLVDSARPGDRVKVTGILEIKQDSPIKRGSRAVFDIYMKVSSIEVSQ

UBP [4] = target: T1, UBP; test: EMSA; 370 nM UBP; EMSA: 50 mM K-acetate, 20 mM Tris-acetate, 10 mM Mg-acetate, 1 mM DTT, pH 7.9, 5-10% glycerol, 70 mM NaCl, 800 ng salmon sperm DNA per 10 ul, room temperature 10 min; footprinting same buffer, 4% glycerol, 8000 ng salmon sperm DNA; pull-down 25 mM HEPES pH 7.5, 150 mM NaCl, 10 mM MgCl, 100 uM ZnCl, 10 mM DTT, 48 C; conditions: protein: recombinant; tags: MBP tag removed by Factor Xa; 3 extra vector residues at N-terminus; chain copies: 2; label: 5'-32P; blunt
UBP;MCM-NT = target: T4, UBP;MCM-NT (Sulfolobus islandicus REY15A;Sulfolobus …, UniProt F0NFD3;F0NF15 1-111;1-266, |); test: EMSA; 370 nM UBP; preferred over naked DNA; EMSA: 50 mM K-acetate, 20 mM Tris-acetate, 10 mM Mg-acetate, 1 mM DTT, pH 7.9, 5-10% glycerol, 70 mM NaCl, 800 ng salmon sperm DNA per 10 ul, room temperature 10 min; footprinting same buffer, 4% glycerol, 8000 ng salmon sperm DNA; pull-down 25 mM HEPES pH 7.5, 150 mM NaCl, 10 mM MgCl, 100 uM ZnCl, 10 mM DTT, 48 C; conditions: protein: recombinant;recombinant; tags: MBP tag removed by Factor Xa; 3 extra vector residues at N-terminus;C-terminal 6xHis; label: 5'-32P; blunt
T4 sequence 1: T1 sequence
T4 sequence 2: T3 sequence

UBP;MCM = target: T5, UBP;MCM (Sulfolobus islandicus REY15A;Sulfolobus …, UniProt F0NFD3;F0NF15 1-111;1-686, |); test: as above; conditions: protein: recombinant;recombinant; tags: MBP tag removed by Factor Xa; 3 extra vector residues at N-terminus;; label: 5'-32P; blunt
T5 sequence 1: T1 sequence
T5 sequence 2: T2 sequence

[5] = target: T6, MCM replicative helicase, full-length recombinant (Sulfolobus islandicus REY15A, UniProt F0NF15 1-686); test: MCM recruitment (in vitro loading) assay on bead-bound origin DNA; 200 pM DNA on magnetic beads, UBP and/or Orc1-1 E147A 1 µM, 2 mM ATP, 50 °C, MCM 12.9 nM; washes with binding buffer and with 500 mM potassium acetate; western blot; conditions: both partners purified
T6 construct: MCM replicative helicase, Sulfolobus islandicus REY15A, SiRe_1228; The introduction and discussion call archaeal MCM a homohexamer (cited work); also called full-length MCM; recombinant MCM
T6 sequence (looked up): T2 sequence

UBP [6] = target: T1, UBP; test: EMSA; 0-740 nM UBP; EMSA: 50 mM K-acetate, 20 mM Tris-acetate, 10 mM Mg-acetate, 1 mM DTT, pH 7.9, 5-10% glycerol, 70 mM NaCl, 800 ng salmon sperm DNA per 10 ul, room temperature 10 min; footprinting same buffer, 4% glycerol, 8000 ng salmon sperm DNA; pull-down 25 mM HEPES pH 7.5, 150 mM NaCl, 10 mM MgCl, 100 uM ZnCl, 10 mM DTT, 48 C; conditions: protein: recombinant; tags: MBP tag removed by Factor Xa; 3 extra vector residues at N-terminus; chain copies: 2; label: 5'-32P; blunt
UBP (DNA co-crystal) = target: T7, UBP (DNA co-crystal) (Sulfolobus islandicus REY15A, UniProt F0NFD3 1-111); test: X-ray crystallography; 1.8 A; EMSA: 50 mM K-acetate, 20 mM Tris-acetate, 10 mM Mg-acetate, 1 mM DTT, pH 7.9, 5-10% glycerol, 70 mM NaCl, 800 ng salmon sperm DNA per 10 ul, room temperature 10 min; footprinting same buffer, 4% glycerol, 8000 ng salmon sperm DNA; pull-down 25 mM HEPES pH 7.5, 150 mM NaCl, 10 mM MgCl, 100 uM ZnCl, 10 mM DTT, 48 C; conditions: protein: recombinant; tags: MBP tag removed by Factor Xa; 3 extra vector residues at N-terminus; blunt
T7 sequence: T1 sequence

**Q.** With “UBP (ucm-binding protein), recombinant wild type (from UniProt F0NFD3 1-111)” as the molecule, how does the stoichiometry N [1] read?
**A.** 2

**Q.** Does AATTCTTTTGTATAATGGTT (ssDNA) [ucm 20 nt lower strand (P18)] bind (UBP [2])?
**A.** no binding

**Q.** Does AACCATTATACAAAAGAATT (ssDNA) [ucm 20 nt top strand (P17)] bind (UBP [2])?
**A.** no binding

B1: scr 50 bp (P7/P8) (dsDNA)
DNA 1: ATAATATTTGAAATTAAATGCTTAGTGAATATACGTACAGAATAAAAATT
DNA 2: AATTTTTATTCTGTACGTATATTCACTAAGCATTTAATTTCAAATATTAT
**Q.** Does B1 bind (UBP [3])?
**A.** no binding

B2: ucm 50 bp WT (P5/P6) (dsDNA)
DNA 1: TTGTTATAATTAGATAACCATTATACAAAAGAATTGTATAAGAATGAAAT
DNA 2: ATTTCATTCTTATACAATTCTTTTGTATAATGGTTATCTAATTATAACAA
**Q.** Does B2 bind (UBP [3])?
**A.** binds

B3: oriC1 140 bp (P21/P22) (dsDNA)
DNA 1: TATTTTGAGCAACATTTTGTTATAATTAGATAACCATTATACAAAAGAATTGTATAAGAATGAAATCAAAGCTTATTTTATGTCACTAGAATCTCCAAATGAAATACTGGGGTAGGCCTTGTTTATGACACAACTTACAT
DNA 2: ATGTAAGTTGTGTCATAAACAAGGCCTACCCCAGTATTTCATTTGGAGATTCTAGTGACATAAAATAAGCTTTGATTTCATTCTTATACAATTCTTTTGTATAATGGTTATCTAATTATAACAAAATGTTGCTCAAAATA
**Q.** Which results are given for B3?
**A.** binding result (MCM): binds; binding result (MCM-NT): binds; binding result (UBP [4]): binds; binding result (UBP;MCM-NT): binds; binding result (UBP;MCM): binds

B4: Orc1-1 E147A (Walker B mutant) (natural protein, Sulfolobus islandicus REY15A, UniProt F0NBP2 1-397, looked up)
chain: MSDIIDEVISSFRTSSIFVNREYLMPDYIPDELPHRENQIRKIASILAPLYREEKPNNIFIYGLTGTGKTAVVKFVLSRFHKKFLGKFKYIYINTRQIDTPYRVLADLLESLDVKVPFTGLSIAELYRRLVKAIREYDSQVVIVLDAIDAFVKRYNDDILYKLSRINSEVNRSKVSFIGITNDVKFVDLLDPRVKSSLSEEEIVFPPYNAEELEDILTKRAQMAFRPGVLPDNVIRLCAALAAREHGDARRALDLLRVAGEIAERLKDSKVKEEYVHLAKEEIERDRVRDIILTLPFHSKLVLTAVASMSSEDNVVLTTGAVYETYLNICKKLGVEPITQRRVSDIINELDMVGILRAKVVNRGRYGKTKEIGLAVDKNIIVKSLIESDSRFADLWG
notes: Orc1-1 replication initiator, Sulfolobus islandicus REY15A, SiRe_1740
**Q.** Does B4 bind [5]?
**A.** binds

B5: ucm 20 bp (P17/P18) (dsDNA)
DNA 1: AACCATTATACAAAAGAATT
DNA 2: AATTCTTTTGTATAATGGTT
**Q.** Does B5 bind (UBP [6])?
**A.** binds

B6: 12 bp ucm crystal DNA (P49/P50) (dsDNA)
DNA 1: ATTATACAAAAG
DNA 2: CTTTTGTATAAT
modifications: 5-bromo-dU at positions 2 and 5 of strand 1 and 2 and 9 of strand 2 (written T)
**Q.** Does B6 bind (UBP (DNA co-crystal))?
**A.** binds
